# Source: IntAct's records for PubMed 16467851
# B1: 1-phosphatidylinositol 4,5-bisphosphate phosphodiesterase gamma-1 (Bos taurus (Bovine)), P08487 (parent)
# chain: MAGAASPCANGCGPSAPSDAEVVHLCRSLEVGTVMTLFYSKKSQRPERKTFQVKLETRQITWSRGADKIEGAIDIREIKEIRPGKTSRDFDRYQEDPAFRPDQSHCFVILYGMEFRLKTLSLQATSEDEVNMWIRGLTWLMEDTLQAATPLQIERWLRKQFYSVDRNREDRISAKDLKNMLSQVNYRVPNMRFLRERLTDLEQRTSDITYGQFAQLYRSLMYSAQKTMDLPFLEASALRAGERPELCRVSLPEFQQFLLEYQGELWAVDRLQVQEFMLSFLRDPLREIEEPYFFLDEFVTFLFSKENSIWNSQLDEVCPDTMNNPLSHYWISSSHNTYLTGDQFSSESSLEAYARCLRMGCRCIELDCWDGPDGMPVIYHGHTLTTKIKFSDVLHTIKEHAFVASEYPVILSIEDHCSIAQQRNMAQYFKKVLGDTLLTKPVDIAADGLPSPNQLKRKILIKHKKLAEGSAYEEVPTSVMYSENDISNSIKNGILYLEDPVNHEWYPHYFVLTSSKIYYSEETSSDQGNEDEEEPKEASGSTELHSNEKWFHGKLGAGRDGRHIAERLLTEYCIETGAPDGSFLVRESETFVGDYTLSFWRNGKVQHCRIHSRQDAGTPKFFLTDNLVFDSLYDLITHYQQVPLRCNEFEMRLSEPVPQTNAHESKEWYHASLTRAQAEHMLMRVPRDGAFLVRKRNEPNSYAISFRAEGKIKHCRVQQEGQTVMLGNSEFDSLVDLISYYEKHPLYRKMKLRYPINEEALEKIGTAEPDYGALYEGRNPGFYVEANPMPTFKCAVKALFDYKAQREDELTFTKSAIIQNVEKQEGGWWRGDYGGKKQLWFPSNYVEEMVSPAALEPEREHLDENSPLGDLLRGVLDVPACQIAVRPEGKNNRLFVFSISMASVAHWSLDVAADSQEELQDWVKKIREVAQTADARLTEGKMMERRKKIALELSELVVYCRPVPFDEEKIGTERACYRDMSSFPETKAEKYVNKAKGKKFLQYNRLQLSRIYPKGQRLDSSNYDPLPMWICGSQLVALNFQTPDKPMQMNQALFLAGGHCGYVLQPSVMRDEAFDPFDKSSLRGLEPCAICIEVLGARHLPKNGRGIVCPFVEIEVAGAEYDSIKQKTEFVVDNGLNPVWPAKPFHFQISNPEFAFLRFVVYEEDMFSDQNFLAQATFPVKGLKTGYRAVPLKNNYSEGLELASLLVKIDVFPAKQENGDLSPFGGASLRERSCDASGPLFHGRAREGSFEARYQQPFEDFRISQEHLADHFDGRDRRTPRRTRVNGDNRL
# partner: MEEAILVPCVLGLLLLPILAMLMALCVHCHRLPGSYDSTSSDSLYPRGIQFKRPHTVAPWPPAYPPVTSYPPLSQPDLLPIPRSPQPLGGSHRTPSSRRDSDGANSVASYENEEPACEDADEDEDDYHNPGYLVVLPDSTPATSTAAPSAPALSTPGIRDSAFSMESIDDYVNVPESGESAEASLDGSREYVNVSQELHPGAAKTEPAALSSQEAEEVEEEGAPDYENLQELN
# B2: 1-phosphatidylinositol 4,5-bisphosphate phosphodiesterase gamma-1 (Bos taurus (Bovine)), P08487 (parent)
# chain: B1 chain
# B3: 1-phosphatidylinositol 4,5-bisphosphate phosphodiesterase gamma-1 (Bos taurus (Bovine)), P08487 (parent)
# chain: B1 chain
# partner: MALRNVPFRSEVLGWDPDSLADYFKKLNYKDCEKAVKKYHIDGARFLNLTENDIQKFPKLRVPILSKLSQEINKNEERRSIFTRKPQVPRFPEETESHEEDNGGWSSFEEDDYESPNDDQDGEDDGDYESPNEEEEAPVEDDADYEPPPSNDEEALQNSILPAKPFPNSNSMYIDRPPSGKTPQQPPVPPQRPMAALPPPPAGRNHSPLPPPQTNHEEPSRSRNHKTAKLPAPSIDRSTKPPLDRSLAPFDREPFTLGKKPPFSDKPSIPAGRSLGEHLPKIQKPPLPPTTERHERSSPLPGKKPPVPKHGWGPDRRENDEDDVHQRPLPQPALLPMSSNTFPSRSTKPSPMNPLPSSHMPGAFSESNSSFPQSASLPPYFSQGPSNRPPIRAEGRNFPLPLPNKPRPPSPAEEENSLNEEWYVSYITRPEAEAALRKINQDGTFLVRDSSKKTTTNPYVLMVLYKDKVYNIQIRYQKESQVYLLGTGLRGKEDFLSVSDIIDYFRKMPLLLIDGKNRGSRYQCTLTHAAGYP
# B4: 1-phosphatidylinositol 4,5-bisphosphate phosphodiesterase gamma-1 (Bos taurus (Bovine)), P08487 (parent)
# chain: B1 chain
# partner: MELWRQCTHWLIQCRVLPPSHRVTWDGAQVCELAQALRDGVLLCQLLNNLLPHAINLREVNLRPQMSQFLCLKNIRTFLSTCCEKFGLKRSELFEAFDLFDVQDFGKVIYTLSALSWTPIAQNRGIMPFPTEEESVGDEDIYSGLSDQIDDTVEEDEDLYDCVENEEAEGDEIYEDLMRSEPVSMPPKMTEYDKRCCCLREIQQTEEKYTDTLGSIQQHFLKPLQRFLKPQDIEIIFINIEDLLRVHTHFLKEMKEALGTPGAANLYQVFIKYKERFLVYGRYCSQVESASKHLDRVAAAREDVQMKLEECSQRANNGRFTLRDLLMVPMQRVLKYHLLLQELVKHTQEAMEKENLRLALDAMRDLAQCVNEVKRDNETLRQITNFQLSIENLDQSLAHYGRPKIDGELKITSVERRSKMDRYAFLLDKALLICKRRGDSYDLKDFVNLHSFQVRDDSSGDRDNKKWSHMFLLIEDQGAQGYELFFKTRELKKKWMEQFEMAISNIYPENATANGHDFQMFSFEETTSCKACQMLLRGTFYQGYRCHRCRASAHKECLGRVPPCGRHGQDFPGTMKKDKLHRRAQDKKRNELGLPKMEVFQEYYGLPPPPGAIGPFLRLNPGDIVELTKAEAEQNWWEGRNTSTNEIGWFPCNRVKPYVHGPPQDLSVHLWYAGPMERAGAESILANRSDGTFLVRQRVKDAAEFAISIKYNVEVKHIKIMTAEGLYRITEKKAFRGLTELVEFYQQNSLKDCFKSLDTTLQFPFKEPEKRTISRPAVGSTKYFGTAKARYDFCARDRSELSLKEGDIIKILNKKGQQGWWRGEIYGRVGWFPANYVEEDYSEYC
# Variants of: B1
# Details: with LAT
row,effect of a mutation on the interaction,Variant
1,disrupting interaction,R696K
2,disrupting interaction,P842K
3,disrupting interaction,R694K

# Variants of: B1
# Details: with LAT
# Remark: another data set of the same source
row,effect of a mutation on the interaction,Variant
1,disrupting interaction,R586K

# Variants of: B2
# Details: with cbl_human CBL
row,effect of a mutation on the interaction,Variant
1,disrupting interaction,P842K

# Variants of: B3
# Details: with lcp2_human LCP2, Q13094
row,effect of a mutation on the interaction,Variant
1,disrupting interaction,R586K

# Variants of: B3
# Details: with lcp2_human LCP2, Q13094
# Remark: another data set of the same source
row,effect of a mutation on the interaction,Variant
1,disrupting interaction,P842K

# Variants of: B3
# Details: with lcp2_human LCP2, Q13094
# Remark: another data set of the same source
row,effect of a mutation on the interaction,Variant
1,disrupting interaction,R696K
2,disrupting interaction,R694K

# Variants of: B4
# Details: with vav_human VAV1, P15498
row,effect of a mutation on the interaction,Variant
1,disrupting interaction,R696K
2,disrupting interaction,R694K

# Variants of: B4
# Details: with vav_human VAV1, P15498
# Remark: another data set of the same source
row,effect of a mutation on the interaction,Variant
1,disrupting interaction,P842K

# Variants of: B4
# Details: with vav_human VAV1, P15498
# Remark: another data set of the same source
row,effect of a mutation on the interaction,Variant
1,disrupting interaction,R586K
